B1: TPR t1 (parent)
chain: GACCAAUCUGCCCUCAGAGCUCGAGAACAUCUUCGGAUGCAGAGGAGGCAGGCUUCGGUGGCGCGAUAGCGCCAACGUCCUCAACCUCCAAUGCAUCCCACCACAUGAUGAUGCCUGAAGAGCCUUGGUUUUUUG

Variants of: B1
Assay: polymerase ribozyme fitness, log enrichment relative to wild type (log ratio); higher = more active; in vitro selection for triplet polymerase activity
Outline: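 Mutant libraries were PCR-built and transcribed for each subunit of a heterodimeric triplet polymerase ribozyme and selected for one round in triplicate at −7 °C, frozen, before gel excision of extended constructs and streptavidin-bead capture. Input and output libraries were Illumina-sequenced, keeping genotypes with ≥10 input reads and ≥1 read per output. Fitness is a logarithmic ratio of genotype to wild-type enrichment, in base 2, using inverse-variance-weighted replicate averages.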

Row | Variant | polymerase ribozyme fitness (log ratio)
1 | GACCAAUCUGCCCUCAGAGCUCGAGAACAUCUUCGGAUGCAGAGGAGGCAGGCUUCGGUGGCGCGAUAGCGCCAACGUCCUCAAGCUCCAAUGUAUUCCACCACAUGAUGAUGCCUGAACAGCCUUGGUUUUUUG [C85G C94U C97U G120C] | -0.74
2 | GACCAAUCUGCCCUCAGAGCUCGAGAACAUCUUCGGAUGCAGAGGAGGCAGGCUUCGGUGGCGCGAUAGCGCCAACGUCCUCAAGCUCCAAUGCAUCCUACCACAUGAUGAUGCCUGAAGAGCCUUGGUUUUUUG [C85G C99U] | -4.35
3 | GACCAAUCUGCCCUCAGAGCUCGAGAACAUCUUCGGAUGCAGAGGAGGCAGGCUUCGGUGGCGCGAUAGCGCCAACGUCCUCAAGCUCCAAUGCAUCCCACCACAUGAUGAUGUCUGAAGAGCCUUGGUUUUUUG [C85G C114U] | -3.59
4 | GACCAAUCUGCCCUCAGAGCUCGAGAACAUCUUCGGAUGCAGAGGAGGCAGGCUUCGGUGGCGCGAUAGCGCCAACGUCCUCAAGCUCCAAUGCAUCCCACCACAUGAUCAUGCCUGAAGAGCCUUGGUUUUUUG [C85G G110C] | -4.96
5 | GACCAAUCUGCCCUCAGAGCUCGAGAACAUCUUCGGAUGCAGAGGAGGCAGGCUUCGGUGGCGCGAUAGCGCCAACGUCCUCAAGCUCCAAUGCAUCCCACCACAUGAUGAUGCCUGAAGAGCCUUGAUUUUUUG [C85G G128A] | -2.55
6 | GACCAAUCUGCCCUCAGAGCUCGAGAACAUCUUCGGAUGCAGAGGAGGCAGGCUUCGGUGGCGCGAUAGCGCCAACGUCCUCAAGCUCCAAUGCAUCCCACCACAGGAUGAUGCCUGAAGAGCCUUGGUUUUUUG [C85G U106G] | -2.45
7 | GACCAAUCUGCCCUCAGAGCUCGAGAACAUCUUCGGAUGCAGAGGAGGCAGGCUUCGGUGGCGCGAUAGCGCCAACGUCCUCAAGCUCCAAUGCAUCCCACCACAUGAUGAUGCCUGAAGAGCCUUGGUUAUUUG [C85G U131A] | -1.92
8 | GACCAAUCUGCCCUCAGAGCUCGAGAACAUCUUCGGAUGCAGAGGAGGCAGGCUUCGGUGGCGCGAUAGCGCCAACGUCCUCAAUCUCCAAUGCAUCCCCCCACAUGAUGAUGCCUGAAGAGCCUUGGUUUUUUG [C85U A100C] | -1.76
9 | GACCAAUCUGCCCUCAGAGCUCGAGAACAUCUUCGGAUGCAGAGGAGGCAGGCUUCGGUGGCGCGAUAGCGCCAACGUCCUCAAUCUCCAAUGCAUCCCUCCACAUGAUGAUGCCUGAAGAGCCUUGGUUUUUUG [C85U A100U] | -1.79
10 | GACCAAUCUGCCCUCAGAGCUCGAGAACAUCUUCGGAUGCAGAGGAGGCAGGCUUCGGUGGCGCGAUAGCGCCAACGUCCUCAAUCUCCAAUGCAUCCCACCACAUGUUGAUGCCUGAAGAGGCUUGGUUUUUUG [C85U A108U C123G] | -6.32
11 | GACCAAUCUGCCCUCAGAGCUCGAGAACAUCUUCGGAUGCAGAGGAGGCAGGCUUCGGUGGCGCGAUAGCGCCAACGUCCUCAAUCUCCAAUGCAUCCCACCACAUGAUGAUGCCUGGAGAGCCUUGGUUUUUUG [C85U A118G] | -0.773
12 | GACCAAUCUGCCCUCAGAGCUCGAGAACAUCUUCGGAUGCAGAGGAGGCAGGCUUCGGUGGCGCGAUAGCGCCAACGUCCUCAAUCUCCAAUGUAUCCCACCACAUGAUGAUGCCUGAAGAGCCUUGGUUUUUUG [C85U C94U] | -1.2
13 | GACCAAUCUGCCCUCAGAGCUCGAGAACAUCUUCGGAUGCAGAGGAGGCAGGCUUCGGUGGCGCGAUAGCGCCAACGUCCUCAAUCUCCAAUGCAUCUCACCACAUGAUGAUGCCUGAAGAGCCUUGGUUUUUUG [C85U C98U] | -1.57
14 | GACCAAUCUGCCCUCAGAGCUCGAGAACAUCUUCGGAUGCAGAGGAGGCAGGCUUCGGUGGCGCGAUAGCGCCAACGUCCUCAAUCUCCAAUGCAUCCCACCACAUGAUGAUGCCUGAAGAGCGUUGGUUUUUUG [C85U C124G] | 0.923
15 | GACCAAUCUGCCCUCAGAGCUCGAGAACAUCUUCGGAUGCAGAGGAGGCAGGCUUCGGUGGCGCGAUAGCGCCAACGUCCUCAAUCUCCAAUGCAUCCCACCACAUGAUCAUGCUUGAAGGGCCUUGGUUUUUUG [C85U G110C C115U A121G] | -6.18
16 | GACCAAUCUGCCCUCAGAGCUCGAGAACAUCUUCGGAUGCAGAGGAGGCAGGCUUCGGUGGCGCGAUAGCGCCAACGUCCUCAAUCUCCAAUGCAUCCCACCACAUGAUGAUCACUGAAGAGCCUUGGUUUUUUG [C85U G113C C114A] | -5.96
17 | GACCAAUCUGCCCUCAGAGCUCGAGAACAUCUUCGGAUGCAGAGGAGGCAGGCUUCGGUGGCGCGAUAGCGCCAACGUCCUCAAUCUCCAAUGCAUCCCACCACAUGAUGAUUCCUGAAGAGCCUUGGUUUUUUG [C85U G113U] | -3.63
18 | GACCAAUCUGCCCUCAGAGCUCGAGAACAUCUUCGGAUGCAGAGGAGGCAGGCUUCGGUGGCGCGAUAGCGCCAACGUCCUCAAUCUCCAAUGCAUCCCACCACAUGAUGAUGCCUGAACAGCCUUGGUUUUUUG [C85U G120C] | 0.93
19 | GACCAAUCUGCCCUCAGAGCUCGAGAACAUCUUCGGAUGCAGAGGAGGCAGGCUUCGGUGGCGCGAUAGCGCCAACGUCCUCAAUCUCCAAUGCAUCCCACCACAUGAUGAUGCCUGAAUAGCCUUGGUUUUUUG [C85U G120U] | 0.655
20 | GACCAAUCUGCCCUCAGAGCUCGAGAACAUCUUCGGAUGCAGAGGAGGCAGGCUUCGGUGGCGCGAUAGCGCCAACGUCCUCAAUCUCCAAUGCAUCCCACCACAUGAGGAUGCCUGAAGAGCCUUGGUUUUUUG [C85U U109G] | -5.2
21 | GACCAAUCUGCCCUCAGAGCUCGAGAACAUCUUCGGAUGCAGAGGAGGCAGGCUUCGGUGGCGCGAUAGCGCCAACGUCCUCAAUCUCCAAUGCAUCCCACCACAUGAUGAAGCCUGAAGAGCCUUGGUUUUUUG [C85U U112A] | 0.416
